Results reported in patent US20110123440A1.

Molecular target: human FcRn (soluble recombinant, 6XHis, co-expressed with beta2 microglobulin) (human)
Test: luminex binding assay, pH 6

human FcRn (soluble recombinant, 6XHis, co-expressed with beta2 microglobulin) (human), sequence (P55899 other isoform, or with tags, fused parts or gaps): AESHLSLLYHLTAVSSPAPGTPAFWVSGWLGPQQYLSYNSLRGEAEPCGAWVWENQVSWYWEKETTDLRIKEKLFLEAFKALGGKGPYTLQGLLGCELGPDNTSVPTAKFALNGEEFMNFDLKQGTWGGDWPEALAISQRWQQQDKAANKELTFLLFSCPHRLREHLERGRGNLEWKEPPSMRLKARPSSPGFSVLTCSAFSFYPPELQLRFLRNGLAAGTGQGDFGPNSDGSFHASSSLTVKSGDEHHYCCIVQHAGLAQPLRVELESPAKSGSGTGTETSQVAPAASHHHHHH

FcRn binding at pH 6 (fold difference vs wild type anti-CD30) (fold vs wild type) | Substance
0.6 | anti-CD30 antibody (5F11) Fc variant A378P
1.6 | anti-CD30 antibody (5F11) Fc variant D376T
1.3 | anti-CD30 antibody (5F11) Fc variant E345W
1.1 | anti-CD30 antibody (5F11) Fc variant G446W
1.3 | anti-CD30 antibody (5F11) Fc variant S354R
0.6 | anti-CD30 antibody (5F11) Fc variant S426W

More lines, now with the values behind:

Substance | FcRn binding at pH 6 (fold difference vs wild type anti-CD30) (fold vs wild type)
anti-CD30 antibody (5F11) Fc variant E356K | 1.4
anti-CD30 antibody (5F11) Fc variant F404W | 1.7
anti-CD30 antibody (5F11) Fc variant P247I | 1.1
anti-CD30 antibody (5F11) Fc variant P396I | 1.4
anti-CD30 antibody (5F11) Fc variant S254W | 0.2
